This is an account of results in publication PMC6771245, “CMKLR1-targeting peptide tracers for PET/MR imaging of breast cancer” (Theranostics, 2019).

Where a SMILES comes first, the peptide text is derived from it. [ ]: non-standard residue; d: D form. The star is where a group is joined. DOTA = O=C(O)CN1CCN(CC(=O)O)CCN(CC(=O)*)CCN(CC(=O)O)CC1; Hyp = O=C(O)[C@@H]1C[C@@H](O)CN1; Tic = O=C(O)[C@@H]1Cc2ccccc2CN1; Cha = N[C@@H](CC1CCCCC1)C(=O)O; Cit = NC(=O)NCCC[C@H](N)C(=O)O; Octanoyl = CCCCCCCC(=O)*

The target of series [1] is T1, huCMKLR1 (Homo sapiens, UniProt Q99788).
T1 construct: expressed in transfected cells; host or cells: HEK293a (membrane preparations)
T1 sequence (Q99788 1-373): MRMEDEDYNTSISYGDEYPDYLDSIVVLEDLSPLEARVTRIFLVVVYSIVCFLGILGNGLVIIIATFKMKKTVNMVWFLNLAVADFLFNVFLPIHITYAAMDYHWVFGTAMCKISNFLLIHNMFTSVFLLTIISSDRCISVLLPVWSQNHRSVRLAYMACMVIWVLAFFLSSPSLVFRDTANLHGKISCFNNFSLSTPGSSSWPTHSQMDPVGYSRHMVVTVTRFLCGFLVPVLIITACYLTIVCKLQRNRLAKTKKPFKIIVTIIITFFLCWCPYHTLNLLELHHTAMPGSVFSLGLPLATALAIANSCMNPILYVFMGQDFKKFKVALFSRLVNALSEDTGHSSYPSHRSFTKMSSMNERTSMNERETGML
Briefly: Competitive radioligand binding with ^125I-chemerin-9, membranes of HEK293a cells stably expressing huCMKLR1 and Gα16. The settings on record: unlabeled compound; radioligand ^125I-chemerin-9, 5 µg membrane, 1 h 37 °C; three independent experiments, mean ± SD; read-out: competition binding IC50 w/o ^natGa. How it is done: (§1) For in vitro analysis, HEK293a stably transfected with huCMKLR1 and Gα16 were used. For the in vivo mouse model, the human breast cancer cell line DU4475 with endogenous CMKLR1 expression and the target-negative human lung carcinoma cell line A549 were used. All cell lines were obtained from ATCC/LGC Standards (Wesel, Germany) and were cultured in RPMI1640 medium containing 10% fetal bovine serum (both from Biochrom, Berlin, Germany) and, in case of transfected cells, selection agents G418 (Biochrom, Berlin, Germany) and zeocin (Invitrogen, Carlsbad, USA).
Competitive binding studies were performed with cell membrane preparations. […] […].
(§2) All statistical analyses were performed using GraphPad Prism 5.04. EC50/IC50 values were determined by nonlinear sigmoidal curve fitting with variable slope setting, and normalized response for competitive binding results. Multiple group comparisons were done by a two-way ANOVA and Bonferroni post hoc test. All presented data are based on independent experiments. Normalizations and statistics are further defined in each figure legend.

In series [2] the target is T1, huCMKLR1. Nature of the series: Calcium mobilization assay. The settings on record: HEK293a huCMKLR1 Gα16 cells, Fluo-4 AM; three independent experiments, mean ± SD; read-out: Ca^2+ assay EC50. The class given is cell-based. How it is done:
as §1
Optical ViewPlate 96-well microplates (PerkinElmer, Waltham, USA) were coated with poly-D-lysine (10 µg/mL, 50 µL/well) for 30 minutes at 37 °C, washed with PBS and air dried before seeding 40,000 HEK293a huCMKLR1 Gα16 cells per well. The next day, cells were starved with serum-free medium for 30 minutes and incubated with loading medium consisting of serum-free medium with 2.5 mM probenicid (Sigma-Aldrich, St. Louis, USA) and 2 µM Fluo-4 AM (Thermo Fisher Scientific, Waltham, USA). After a loading time of 45 minutes, cells were washed with 100 μL C1 buffer (130 mM NaCl, 5 mM KCl, 10 mM 4-(2-hydroxyethyl)-1-piperazineethanesulfonic acid [HEPES], 2 mM CaCl2, 10 mM glucose) followed by 20 minutes of incubation in the dark. After another washing and incubation cycle, the cell plate was placed into the CellLux Calcium Imaging System (PerkinElmer, Waltham, USA) and the assay was performed automatically according to the following protocol. After a baseline measurement for 30 seconds, the ligands (prepared in C1 buffer with 0.5% BSA in double concentration and pipetted in a U-bottom plate) were added on top of the cells and the fluorescence intensity was recorded for further 60 seconds. Obtained raw data were analyzed using AssayPro (PerkinElmer, Waltham, USA). After spatial uniformity correction, maximum response values (F) were normalized to baseline values (F0) of each well using the following equation:
response = ΔF/F0 = (F - F0)/F0.
as §2

Another series can be described thus: in vivo. The settings on record: female, mouse, iv, 10 MBq, total radioactivity. An excerpt:
(§3) For in vivo experiments, at least 8-week-old female athymic NMRI-Foxn1^nu /Foxn1^nu mice (Janvier Labs, Saint-Berthevin, France) were used. Animal care followed institutional guidelines and all experiments were approved by local animal research authorities. For the generation of tumor xenografts, 5 x 10^6 cells of both DU4475 and A549 cells were inoculated subcutaneously into the right and left shoulder, respectively (1:1 phosphate-buffered saline [PBS]/Matrigel Basement Membrane Matrix High Concentration, Corning, Corning, USA). Part of the animals received SW13 lung cancer cells as a CMKLR1-negative control tumor. For the analysis of biodistribution, only data of […] and A549 xenograft tumors are used. Tumors were allowed to grow for two to four weeks (tumor volume > 100 mm^3) after cell inoculation.
(§4) Radiolabeling experiments were performed on a Modular Lab PharmTracer synthesis module (Eckert & Ziegler, Berlin, Germany) which allows fully automated cassette-based labeling of gallium tracers utilizing a pharmaceutical grade ^68Ge/^68Ga generator (GalliaPharm, 1.85 GBq, good manufacturing practice [GMP]-certified; Eckert & Ziegler GmbH, Berlin, Germany). Cassettes were GMP-certified and sterile. They were used without pre-conditioning of the cartridges. The gallium generator was eluted with aqueous HCl (0.1 M, 7 mL) and the eluate was purified on an ion-exchange cartridge followed by elution using 1 mL of 0.1 M HCl in acetone. The peptide-DOTA conjugate (50 µg from a stock solution 1 mg/mL in 10% dimethyl sulfoxide [DMSO] in water) was mixed with 500 µL 0.1 M HEPES buffer (pH 7) and heated for 500 seconds at 95 °C. After the reaction, the mixture was passed through a C-18 cartridge for purification and the tracer was eluted from the cartridge with ethanol. In order to control the quality of radiolabeling, the radiochemical yield, purity, and specific activity for all five peptide-DOTA conjugates and each individual labeling experiment was determined. Overall, a radiochemical yield of 82.1% ± 6.7%, a radiochemical purity of 98.1 ± 4.6% and a molar activity of 8.6 GBq/µmol ± 2.7 GBq/µmol was achieved (Table S1). Before animal injection, the activity was equilibrated to neutral pH using 1 M sodium hydrogen carbonate. It was further diluted with saline to ≤ 10% ethanol.
(§5) Tumor-bearing mice were injected with approximately 10 MBq of ^68Ga-labeled DOTA-peptide or 1 MBq of ^177Lu-labeled DOTA-peptide to the tail vein via a catheter. Mice were sacrificed and dissected one or two hours after injection. Tumor, blood, stomach, pancreas, small intestine, colon, liver, spleen, kidney, heart, lung, muscle and femur samples were weighed and uptake of radioactivity was measured by a gamma counter. To determine the effect of unlabeled ligand on the tumor uptake, 200 nmol CG34 peptide (100-fold excess) was co-injected.

The subject of series [3] is DU4475/A549 xenograft model. Briefly: in vivo. Conditions: mouse.
Text: as §3, §4, §5

Setting [4] is: athymic NMRI-Foxn1^nu/Foxn1^nu, DU4475 tumor uptake.
Setting [5] is: athymic NMRI-Foxn1^nu/Foxn1^nu, blood uptake.
[6] abbreviates: athymic NMRI-Foxn1^nu/Foxn1^nu, heart uptake.
[7] abbreviates: athymic NMRI-Foxn1^nu/Foxn1^nu, kidney uptake.
Setting [8] is: athymic NMRI-Foxn1^nu/Foxn1^nu, liver uptake.
[9] abbreviates: athymic NMRI-Foxn1^nu/Foxn1^nu, lung uptake.
[10] abbreviates: athymic NMRI-Foxn1nu/Foxn1nu, colon uptake.
The mark [11] stands for this setting: athymic NMRI-Foxn1nu/Foxn1nu, femur uptake.
[12] abbreviates: athymic NMRI-Foxn1nu/Foxn1nu, pancreas uptake.
Where [13] appears, read: athymic NMRI-Foxn1nu/Foxn1nu, small intestine uptake.
The mark [14] stands for this setting: athymic NMRI-Foxn1nu/Foxn1nu, stomach uptake.
The mark [15] stands for this setting: athymic NMRI-Foxn1nu/Foxn1nu, tumor-to-blood ratio.
Where [16] appears, read: athymic NMRI-Foxn1nu/Foxn1nu, tumor-to-kidney ratio.
Setting [17] is: athymic NMRI-Foxn1nu/Foxn1nu, tumor-to-liver ratio.
Where [18] appears, read: athymic NMRI-Foxn1nu/Foxn1nu, tumor-to-muscle ratio.
[19] abbreviates: athymic NMRI-Foxn1nu/Foxn1nu, tumor-to-pancreas ratio.

Take `C[C@@H](NC(=O)[C@H](Cc1ccccc1)NC(=O)[C@H](CCCNC(N)=O)NC(=O)CNC(=O)[C@@H]1C[C@@H](O)CN1C(=O)[C@H](CC1CCCCC1)NC(=O)[C@@H](N)Cc1ccc(O)cc1)C(=O)N1Cc2ccccc2C[C@H]1C(=O)N[C@@H](CO)C(=O)O` [CG34] (H-Y[Cha][Hyp]G[Cit]F[dA][Tic]S-OH): at huCMKLR1 [1], the IC50 amounted to 1 nM. Also, on huCMKLR1 [2], the EC50 (usually the concentration at which the effect is half-maximal) stood at 0.4 nM.

With `CSCC[C@H](NC(=O)CNC(=O)[C@@H]1CCCN1C(=O)[C@H](CC1CCCCC1)NC(=O)[C@@H](N)Cc1ccc(O)cc1)C(=O)N[C@@H](Cc1ccc(O)cc1)C(=O)N[C@@H](C)C(=O)N[C@@H](Cc1ccccc1)C(=O)N[C@H](Cc1ccccc1)C(=O)O` [CG36] (H-Y[Cha]PGMYAF[dF]-OH), the IC50 at huCMKLR1 [1] is 0.1 nM. For the same compound, at huCMKLR1 [2], the EC50 stood at 0.9 nM.

`CCCCCCCC(=O)NCCCC[C@H](NC(=O)CN1CCN(CC(=O)O)CCN(CC(=O)O)CCN(CC(=O)O)CC1)C(=O)N[C@@H](Cc1ccc(O)cc1)C(=O)N[C@@H](CC1CCCCC1)C(=O)N1C[C@H](O)C[C@H]1C(=O)NCC(=O)N[C@@H](CCCNC(N)=O)C(=O)N[C@@H](Cc1ccccc1)C(=O)N[C@H](C)C(=O)N1Cc2ccccc2C[C@H]1C(=O)N[C@@H](CO)C(=O)O` [[^68Ga]Ga-DOTA-KCap-CG34, metal not drawn] ({DOTA}-K(Octanoyl)Y[Cha][Hyp]G[Cit]F[dA][Tic]S-OH): the tissue uptake (usually the share of the injected amount in each gram of the tissue) at 1 h worked out at 2.3 %ID/g in “in vivo” (athymic NMRI-Foxn1^nu/Foxn1^nu, A549 tumor uptake); 3.3 %ID/g in the series “in vivo” (setting [4]); 0.6 %ID/g in “in vivo” (setting [5]); 1.1 %ID/g in the series “in vivo” (setting [6]); 5.8 %ID/g in the series “in vivo” (setting [7]); 2.2 %ID/g in “in vivo” (setting [8]). In addition, the tissue uptake at 1 h amounted to 1.7 %ID/g in the series “in vivo” (setting [9]); 0.6 %ID/g in “in vivo” (athymic NMRI-Foxn1^nu/Foxn1^nu, muscle uptake); 4.9 %ID/g in “in vivo” (athymic NMRI-Foxn1^nu/Foxn1^nu, spleen uptake); 2.4 %ID/g in the series “in vivo” (setting [10]); 0.6 %ID/g in the series “in vivo” (setting [11]); 0.9 %ID/g in the series “in vivo” (setting [12]). In addition, the tissue uptake at 1 h in the series “in vivo” (setting [13]) turned out to be 2.3 %ID/g; in “in vivo” (setting [14]) it was 1.4 %ID/g. Further, the tissue uptake at 2 h in “in vivo” (setting [4]) was 2.9 %ID/g; in “in vivo” (setting [5]), 0.2 %ID/g; in “in vivo” (setting [6]), 0.8 %ID/g; in the series “in vivo” (setting [7]), 6.5 %ID/g; in the series “in vivo” (setting [8]), 1.8 %ID/g; in the series “in vivo” (setting [9]), 1.2 %ID/g. In addition, the tissue uptake at 2 h turned out to be 1.7 %ID/g in the series “in vivo” (setting [10]); 0.5 %ID/g in “in vivo” (setting [11]); 0.4 %ID/g in the series “in vivo” (athymic NMRI-Foxn1nu/Foxn1nu, muscle uptake); 0.7 %ID/g in “in vivo” (setting [12]); 1.9 %ID/g in “in vivo” (setting [13]); 4 %ID/g in “in vivo” (athymic NMRI-Foxn1nu/Foxn1nu, spleen uptake). The tissue uptake at 2 h in “in vivo” (setting [14]) came to 1.1 %ID/g. The tissue to tissue ratio at 1 h in the series “in vivo” (setting [15]) was 5.6; in the series “in vivo” (setting [16]) it was 0.7; in the series “in vivo” (setting [17]), 1.6; in “in vivo” (setting [18]), 6.6; in the series “in vivo” (setting [19]) it was 3.7. Also, the tissue to tissue ratio at 2 h in “in vivo” (setting [15]) worked out at 18.2; in “in vivo” (setting [16]), 0.6; in “in vivo” (setting [17]), 1.8; in “in vivo” (setting [18]), 7.2; in the series “in vivo” (setting [19]), 4.3. Besides, in series [3], the “DU4475 tumor uptake after two hours as % of the 1 h-value” was “approx. 88%”. Also, the “higher uptake in CMKLR1-positive DU4475 tumors than in target-negative A549 tumors” value in series [3] was found to be 1.4 fold.
